In article PMC4608358, “Physiological modulation of BiP activity by trans-protomer engagement of the interdomain linker” (eLife, 2015):
Where no end group is shown, it is not given here.

Legend:
[1] = biological target: T1, wildtype hamster BiP, N-terminally hexahistidine-tagged (hamster, UniProt G3I8R9 19-654); assay: SEC; wildtype BiP (50 µM) incubated 16 hr with 1 mM peptide in HKM, SEC-3 column; competition of peptides with oligomerisation; details: both partners purified
T1 construct: BiP (GRP78), hamster; Construct details are in Supplementary file 1; also called wt BiP; wildtype BiP; source: E. coli M15 (pQE10), purified (Ni-NTA); not shown: His6, N-terminal, kept

[2] = biological target: the molecule itself; assay: native gel or EMSA; purified BiP proteins (30-50 µM) on a Tris-glycine native gel (4.5% stacking, 7.5% separation), Coomassie stain or immunoblot; with or without ATP (3-5 mM)
[3] = biological target: T1, wildtype hamster BiP, N-terminally …; assay: SEC; BiP protein (50 µM) with 1 µM lucifer yellow-labeled tracer (peptide or BiP V461F), 16 hr in HKM; A230 nm and LY fluorescence recorded; with or without SubA (36 ng/µl) before the run; details: both partners purified
[4] = biological target: the molecule itself; assay: SEC; purified BiP proteins at 50 µM in HKM buffer (50 mM HEPES-KOH pH 7.4, 150 mM KCl, 10 mM MgCl2), 16 hr at room temperature, no added nucleotide; SEC-3 HPLC column, A230 nm

T1 sequence (G3I8R9 19-654): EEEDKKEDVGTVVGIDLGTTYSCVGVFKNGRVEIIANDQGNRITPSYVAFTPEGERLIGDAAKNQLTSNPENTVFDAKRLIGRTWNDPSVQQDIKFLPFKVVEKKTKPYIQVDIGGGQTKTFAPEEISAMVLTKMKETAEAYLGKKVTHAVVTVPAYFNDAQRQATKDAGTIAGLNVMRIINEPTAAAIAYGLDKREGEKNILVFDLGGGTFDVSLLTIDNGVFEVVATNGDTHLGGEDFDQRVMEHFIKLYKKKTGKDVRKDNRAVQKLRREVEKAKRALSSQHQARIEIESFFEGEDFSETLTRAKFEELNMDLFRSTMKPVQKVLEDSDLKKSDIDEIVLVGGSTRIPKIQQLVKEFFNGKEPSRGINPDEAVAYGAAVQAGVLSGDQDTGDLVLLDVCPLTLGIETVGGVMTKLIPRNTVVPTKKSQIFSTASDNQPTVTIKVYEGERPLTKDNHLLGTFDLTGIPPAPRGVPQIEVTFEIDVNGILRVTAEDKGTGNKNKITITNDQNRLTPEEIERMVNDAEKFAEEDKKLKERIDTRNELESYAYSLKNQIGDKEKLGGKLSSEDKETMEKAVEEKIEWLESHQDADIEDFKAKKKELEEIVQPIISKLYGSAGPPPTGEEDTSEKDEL

B1: BiP-binding peptide HTFPAVL (peptide)
peptide: HTFPAVL
notes: well-characterized BiP substrate peptide (Marcinowski et al., 2011); also called BiP substrate peptide
B1: binds [1].

B2: BiP^G226D, hamster BiP mutant locked in the domain-uncoupled state (natural protein)
chain: not shown
notes: BiP (GRP78), hamster; Construct details are in Supplementary file 1; source: E. coli, purified; not shown: His6, N-terminal, kept
B2: binds [2].

B3: peptide derived from the interdomain linker of BiP (DTGDLVLLD) (peptide)
peptide: DTGDLVLLD
notes: interdomain linker of BiP (GRP78), hamster; also called Linker Pep; linker peptide
B3: binds [1].

B4: BiP^T229A, ATPase activity-deficient mutant of hamster BiP (natural protein)
chain: not shown
notes: BiP (GRP78), hamster; Construct details are in Supplementary file 1; source: E. coli M15 (pQE10), purified (Ni-NTA); not shown: His6, N-terminal, kept
B4: binds [2].

B5: lucifer yellow-labeled BiP-binding peptide (HTFPAVL-LY) (peptide)
peptide: HTFPAVL-{lucifer yellow}
notes: BiP substrate peptide (Marcinowski et al., 2011), fluorescently labelled; also called Pep-LY
In the case of B5, the “ratio of fluorescent to quantity signal R^(FLU/A230 nm), peak II (peak I set to 1.00)” value [3] is reported as 0.48 and the “ratio of fluorescent to quantity signal R^(FLU/A230 nm), peak III (peak I set to 1.00)” value [3] is reported as 0.26.

B6: BiP^T37G, hamster BiP mutant locked in the domain-uncoupled state (natural protein)
chain: not shown
notes: as for B2
B6: binds [2].

B7: BiP^lidless, hamster BiP lacking its C-terminal lid (∆554–654) (domain or fragment)
chain: not shown
notes: Construct details are in Supplementary file 1; also called lidless BiP; source: E. coli, purified; not shown: His6, N-terminal, kept
B7: binds [4].
